# Assays:
# [1] = biological target: Assembled ternary SNARE complex (syntaxin1A 1-263 : SNAP25 : VAMP2 1-96) (UniProt P32851)
# [2] = biological target: K85A-R86S-K87A mutant rat VAMP2 cytoplasmic portion 1-96 (UniProt P63045)
# [3] = system: Native guinea pig VAMP2 in isolated pancreatic zymogen granules
# [4] = system: Native guinea pig VAMP8 in isolated pancreatic zymogen granules
# [5] = biological target: T1, Recombinant human VAMP8 (endobrevin) cytoplasmic portion 1-74 (UniProt Q9BV40)
# T1 sequence: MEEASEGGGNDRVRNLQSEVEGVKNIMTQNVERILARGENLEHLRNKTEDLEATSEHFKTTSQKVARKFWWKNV
# [6] = biological target: Recombinant wild type rat SNAP25 full length 1-206 (UniProt P60881)
# Sequence of Recombinant wild type rat SNAP25 full length 1-206 (P60881 whole entry, looked up, tested part not stated): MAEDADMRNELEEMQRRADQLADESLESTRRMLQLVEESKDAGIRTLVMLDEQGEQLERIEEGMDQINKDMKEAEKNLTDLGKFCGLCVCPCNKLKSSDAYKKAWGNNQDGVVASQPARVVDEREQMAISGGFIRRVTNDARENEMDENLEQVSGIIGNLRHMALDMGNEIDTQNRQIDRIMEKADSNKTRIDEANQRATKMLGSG
# Sequence of Assembled ternary SNARE complex (syntaxin1A 1-263 : SNAP25 : VAMP2 1-96) (P32851 whole entry, looked up, tested part not stated, one chain of several): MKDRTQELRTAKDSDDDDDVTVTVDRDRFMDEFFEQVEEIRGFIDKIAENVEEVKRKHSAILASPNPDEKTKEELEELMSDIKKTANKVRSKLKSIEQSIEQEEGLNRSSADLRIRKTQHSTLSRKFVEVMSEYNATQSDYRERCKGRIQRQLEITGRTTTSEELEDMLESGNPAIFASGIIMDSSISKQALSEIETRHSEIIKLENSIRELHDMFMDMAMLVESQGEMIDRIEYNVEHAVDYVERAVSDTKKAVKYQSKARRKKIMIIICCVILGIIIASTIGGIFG
# Sequence of K85A-R86S-K87A mutant rat VAMP2 cytoplasmic portion 1-96 (P63045 1-96 K85A/R86S/K87A): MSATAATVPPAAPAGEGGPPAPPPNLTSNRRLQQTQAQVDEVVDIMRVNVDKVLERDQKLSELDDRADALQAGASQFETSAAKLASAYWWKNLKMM
substance,measurement,setting,value
Fraction ν of Tityus serrulatus venom (Fx ν metalloprotease),"proteolytic cleavage (PAGE staining density, 60 min)",[1],"a clear change in staining density indicating the occurrence of cleavage by Fx ν of both the assembled complex (not boiled, lane 3) and the unassembled SNARE complex proteins (boiled, lane 4)"
same,"proteolytic cleavage (PAGE, reverse phase chromatography, sequencing)",[2],these substitutions prevented the previously observed cleavage
same,proteolytic cleavage (Western blot of isolated zymogen granules),[3],whole TSV or Fx ν rapidly cleave VAMP2 (upper panel) even in short incubation periods (5 and 30 min)
same,proteolytic cleavage (Western blot of isolated zymogen granules),[4],VAMP8 is also a proteolytic target in ZG during incubation with Fx ν
same,"proteolytic cleavage (transblot, mass spectrometry)",[5],is cleaved upon exposure to Fx ν
same,proteolytic cleavage (transblot),[6],is a t-SNARE that is also cleaved by Fx ν
